B3: Recombinant Mdm36, His6-T7-Mdm36 (natural protein)
chain: MDENGTVKPGYELKGLNSGNSRSNMDKDPIVSKFHRAGLNDSADEEDTDINGNRNTSWITSMISEEKRKVEGKSMLNDEEDLHLSKATLNKCDALVKILADIIKLEFVIHQSWYIRSLHKSVLIQFEVETSGGNKNSAGDSGDDDDDNHNGNLDDSFYKDLSLKCIKKCEKSSLALESLSRDIDQIRDFIMSNTIEDNRVDRLLQNSMTLLLECWIYSMKRLRRLRMKIAGIFVRSKLLLIDHELVTIWHFLQEQNEHETVNNENELKLAETIKSYRAFIKIFIQQLEDSESGSPSSSLFEECLHVFLDIESMYNSLNLNWLLNENKALQERLLSPSSTSENDHTNNLPVIDETKEIEDISSFVNSIVDASMLTHDLTPINSSDSDNLSNGEIDRLDGRRLSSSTSDMSLMMQRTSLQKQLPSLLTAFNNARRLEQELQNACKVNDNKHSTKDTDSNIRRNEHAMSSSVSSIISQNSTLASPSPPMSSSFISTAPSQSSSRMSTLPLSPSSSLLESQSQTLKNNMSQWLNQSRSGLNGTKLIPTNHIGFHSNVLNTLYGIGGGPVSKSYKSNQPSSQNT

The series “SEC-MALS” concerns the molecule itself. Description: SEC-MALS. In general terms: SEC sorts molecules by how far they enter the pores of the column.
For series [1], the target named is B3. Put plainly: co-sedimentation.

B1: Recombinant Num1CC (amino acids 97-294), His6-T7-Num1CC (domain or fragment)
chain: MNFTLELSENLLVECRKLQSSNEAKNEQIKSLKQIKESLSDKIEELTNQKKSFMKELDSTKDLNWDLESKLTNLSMECRQLKELKKKTEKSWNDEKESLKLLKTDLEILTLTKNGMENDLSSQKLHYDKEISELKERILDLNNENDRLLISVSDLTSEINSLQSNRTERIKIQKQLDDAKASISSLKRKVQKKYYQKQ
Usually stoichiometry N stands for a count of units in the complex or per binding partner. Regarding B1, in the series “SEC-MALS”, the “stoichiometry N” value came to 2. In series [1], the binding result was “binds”.

B2: Recombinant Num1CC^3E (K121E + R262E + R265E), His6-T7-Num1CC^3E (domain or fragment)
chain: MNFTLELSENLLVECRKLQSSNEAENEQIKSLKQIKESLSDKIEELTNQKKSFMKELDSTKDLNWDLESKLTNLSMECRQLKELKKKTEKSWNDEKESLKLLKTDLEILTLTKNGMENDLSSQKLHYDKEISELKERILDLNNENDRLLISVSDLTSEINSLQSNETEEIKIQKQLDDAKASISSLKRKVQKKYYQKQ
On to B2, for which the binding result in series [1] was “binds”. On to B3, for which the “stoichiometry N” value in the series “SEC-MALS” was determined as 2.

Values taken from PMC4896055 (The Journal of Cell Biology, 2016).
